The text below walks through data of paper PMC10715038 (Microbiology Spectrum, 2023).

For the assay, the target named is T1, SARS-CoV-2 WHU01 Spike RBD, monomeric (SARS-CoV-2, UniProt P0DTC2).
T1 construct: not shown: Fc (human IgG1), C-terminal, cleaved
In words: SPR. As to conditions: both partners purified.

B1: Cattle ACE2-huFc (soluble cattle ACE2 ectodomain, human IgG1 Fc fusion) (Fc fusion)
chain: QSTTEEQAKTFLEKFNHEAEDLSYQSSLASWNYNTNITDENVQKMNEARAKWSAFYEEQSRMAKTYSLEEIQNLTLKRQLKALQHSGTSALSAEKSKRLNTILNKMSTIYSTGKVLDPNTQECLALEPGLDDIMENSRDYNRRLWAWEGWRAEVGKQLRPLYEEYVVLENEMARANNYEDYGDYWRGDYEVTGAGDYDYSRDQLMKDVERTFAEIKPLYEQLHAYVRAKLMHTYPSYISPTGCLPAHLLGDMWGRFWTNLYSLTVPFEHKPSIDVTEKMENQSWDAERIFKEAEKFFVSISLPYMTQGFWDNSMLTEPGDGRKVVCHPTAWDLGKGDFRIKMCTKVTMDDFLTAHHEMGHIQYDMAYAAQPYLLRNGANEGFHEAVGEIMSLSAATPHYLKALGLLAPDFHEDNETEINFLLKQALTIVGTLPFTYMLEKWRWMVFKGEIPKQQWMEKWWEMKREIVGVVEPLPHDETYCDPACLFHVAEDYSFIRYYTRTIYQFQFHEALCKTAKHEGALFKCDISNSTEAGQRLLQMLRLGKSEPWTLALENIVGIKTMDVKPLLNYFEPLFTWLKEQNRNSFVGWSTEWTPYSDQSIKVRISLKSALGENAYEWNDNEMYLFQSSVAYAMRKYFSEARNETVLFGEDNVWVSDKKPRISFKFFVTSPNNVSDIIPRTEVENAIRLSRDRINDVFQLDDNSLEFLGIQPTLGPPYEPPVTI
In turn, B1 had a Kd of 0.7 µM, a koff of 0.066 s⁻¹ and a kon of 94000 M⁻¹ s⁻¹.

For orientation: Kd means a measure of binding affinity in units of concentration. A high value points to lower affinity. The koff is a measure of how fast the partners let go of each other. Read a low koff as a long-lived complex. The kon is the rate constant with which the complex forms. A high value points to fast association.
